Experimental data: US20260193376A1 (Novo Nordisk, published 2026)
Numbering of substitutions follows the chain as printed.

Key:
[1] = target: human plasma-derived Factor IXa (human, UniProt P00740 47-191; P00740 227-461); assay: cell-based or functional assay
[2] = target: T1, wild-type FIX with C-terminal His-tag (human, UniProt P00740 47-461); assay: SPR (Biacore T200), wild-type FIX captured via His-tag, 20 µM OA antibody (reference)
T1 construct: also called WT
Protocol: (§1) SPR analyses were carried out on Biacore T200 instruments (Biacore AB, Uppsala, Sweden). For the experiments on the T200 instrument the following conditions were applied: measurements were conducted at a temperature of 25° C. Anti-His antibody at 25 μg/ml (R&D Systems, catalogue #MAB050) was immobilized on a CM5 sensor chip using standard amine coupling chemistry. […] at 25 nM were injected at a flow rate of 10 μl/min for 1 min and were captured via their His-tag by the immobilized anti-His antibody. […] The running buffer used was 20 mM Tris, 150 mM NaCl, 5 mM CaCl₂, 0.05% Tween-20, 10 mg/ml BSA, pH 7.4. This was also used for dilution of anti-FIX antibody and FIX samples. Regeneration of the chip was achieved using 10 mM Glycine pH 2.0. Binding data were analysed according to a 1:1 model using BiaEvaluation 4.1 supplied by the manufacturer (Biacore AB, Uppsala, Sweden).
(§2) where Rmax_FIXvar and Rmax_FIXwt represent capture level (RU) of FIX variant and wild-type FIX, respectively, and where R_{max_Ab,FIX_var} and R_{max_Ab,FIX_wt} represent Rmax (RU) of the 20 μM antibody to captured FIX variant and wild-type FIX, respectively.

[3] = target: FIX D332S with C-terminal His-tag (human, UniProt P00740 47-461); assay: SPR (Biacore T200), FIX variant captured via His-tag, 20 µM OA antibody
Protocol: as §1, §2

[4] = target: FIX D332A with C-terminal His-tag (human, UniProt P00740 47-461); assay: as above
Protocol: as §1, §2

[5] = target: FIX K301A with C-terminal His-tag (human, UniProt P00740 47-461); assay: as above
Protocol: as §1, §2

[6] = target: FIX L337A with C-terminal His-tag (human, UniProt P00740 47-461); assay: as above
Protocol: as §1, §2

[7] = target: FIX K341E with C-terminal His-tag (human, UniProt P00740 47-461); assay: as above
Protocol: as §1, §2

[8] = target: FIX R333A with C-terminal His-tag (human, UniProt P00740 47-461); assay: as above
Protocol: as §1, §2

[9] = target: FIX T335A with C-terminal His-tag (human, UniProt P00740 47-461); assay: as above
Protocol: as §1, §2

[10] = target: FIX T343I with C-terminal His-tag (human, UniProt P00740 47-461); assay: as above
Protocol: as §1, §2

[11] = target: FIX S339L with C-terminal His-tag (human, UniProt P00740 47-461); assay: as above
Protocol: as §1, §2

[12] = target: FIX K341A with C-terminal His-tag (human, UniProt P00740 47-461); assay: as above
Protocol: as §1, §2

[13] = target: FIX N346Q with C-terminal His-tag (human, UniProt P00740 47-461); assay: as above
Protocol: as §1, §2

[14] = target: FIX N346A with C-terminal His-tag (human, UniProt P00740 47-461); assay: as above
Protocol: as §1, §2

[15] = target: FIX T340A with C-terminal His-tag (human, UniProt P00740 47-461); assay: as above
Protocol: as §1, §2

[16] = target: FIX R338A with C-terminal His-tag (human, UniProt P00740 47-461); assay: as above
Protocol: as §1, §2

[17] = target: FIX A334L with C-terminal His-tag (human, UniProt P00740 47-461); assay: as above
Protocol: as §1, §2

[18] = target: FIX T343A with C-terminal His-tag (human, UniProt P00740 47-461); assay: as above
Protocol: as §1, §2

FIX T343A with C-terminal His-tag, sequence (P00740 other isoform, or with tags, fused parts or gaps T343A T343A limits assumed): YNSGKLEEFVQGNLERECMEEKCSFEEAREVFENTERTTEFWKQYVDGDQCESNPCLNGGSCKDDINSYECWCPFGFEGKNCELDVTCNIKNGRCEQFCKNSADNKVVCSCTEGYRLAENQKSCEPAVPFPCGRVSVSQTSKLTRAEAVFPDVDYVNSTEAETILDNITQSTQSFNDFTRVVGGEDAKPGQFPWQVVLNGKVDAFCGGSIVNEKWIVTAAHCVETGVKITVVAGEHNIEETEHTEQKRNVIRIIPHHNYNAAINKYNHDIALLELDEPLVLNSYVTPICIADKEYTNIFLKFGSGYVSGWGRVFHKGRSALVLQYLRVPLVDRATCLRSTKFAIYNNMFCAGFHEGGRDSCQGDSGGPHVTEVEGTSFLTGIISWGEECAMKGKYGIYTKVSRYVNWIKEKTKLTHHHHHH
FIX K301A with C-terminal His-tag, sequence (P00740 other isoform, or with tags, fused parts or gaps K301A K301A limits assumed): as the sequence (P00740 other isoform, or with tags, fused parts or gaps T343A T343A limits assumed) above, with K301A, A343T counted along it
FIX D332A with C-terminal His-tag, sequence (P00740 other isoform, or with tags, fused parts or gaps D332A D332A limits assumed): as the sequence (P00740 other isoform, or with tags, fused parts or gaps T343A T343A limits assumed) above, with D332A, A343T counted along it
FIX D332S with C-terminal His-tag, sequence (P00740 other isoform, or with tags, fused parts or gaps D332S D332S limits assumed): as the sequence (P00740 other isoform, or with tags, fused parts or gaps T343A T343A limits assumed) above, with D332S, A343T counted along it
FIX T340A with C-terminal His-tag, sequence (P00740 other isoform, or with tags, fused parts or gaps T340A T340A limits assumed): as the sequence (P00740 other isoform, or with tags, fused parts or gaps T343A T343A limits assumed) above, with T340A, A343T counted along it
T1 sequence (P00740 other isoform, or with tags, fused parts or gaps limits assumed): as the sequence (P00740 other isoform, or with tags, fused parts or gaps T343A T343A limits assumed) above, with A343T counted along it
human plasma-derived Factor IXa, sequence (P00740 47-191, chain 1 of 2): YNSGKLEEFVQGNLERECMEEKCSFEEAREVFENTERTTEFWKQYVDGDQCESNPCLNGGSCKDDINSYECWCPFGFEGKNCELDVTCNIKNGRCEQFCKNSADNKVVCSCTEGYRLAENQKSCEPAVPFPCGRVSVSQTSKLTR
human plasma-derived Factor IXa, sequence (P00740 227-461, chain 2 of 2): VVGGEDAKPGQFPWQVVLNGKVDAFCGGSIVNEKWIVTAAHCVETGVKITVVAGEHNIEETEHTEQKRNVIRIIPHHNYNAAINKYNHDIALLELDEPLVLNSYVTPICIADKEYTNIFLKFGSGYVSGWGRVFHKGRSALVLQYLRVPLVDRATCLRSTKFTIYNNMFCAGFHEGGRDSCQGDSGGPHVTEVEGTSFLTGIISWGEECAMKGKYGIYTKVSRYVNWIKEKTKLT
FIX S339L with C-terminal His-tag, sequence (P00740 other isoform, or with tags, fused parts or gaps S339L S339L limits assumed): as the sequence (P00740 other isoform, or with tags, fused parts or gaps T343A T343A limits assumed) above, with S339L, A343T counted along it
FIX N346A with C-terminal His-tag, sequence (P00740 other isoform, or with tags, fused parts or gaps N346A N346A limits assumed): as the sequence (P00740 other isoform, or with tags, fused parts or gaps T343A T343A limits assumed) above, with A343T, N346A counted along it
FIX N346Q with C-terminal His-tag, sequence (P00740 other isoform, or with tags, fused parts or gaps N346Q N346Q limits assumed): as the sequence (P00740 other isoform, or with tags, fused parts or gaps T343A T343A limits assumed) above, with A343T, N346Q counted along it
FIX T343I with C-terminal His-tag, sequence (P00740 other isoform, or with tags, fused parts or gaps T343I T343I limits assumed): as the sequence (P00740 other isoform, or with tags, fused parts or gaps T343A T343A limits assumed) above, with A343I counted along it
FIX K341E with C-terminal His-tag, sequence (P00740 other isoform, or with tags, fused parts or gaps K341E K341E limits assumed): as the sequence (P00740 other isoform, or with tags, fused parts or gaps T343A T343A limits assumed) above, with K341E, A343T counted along it
FIX A334L with C-terminal His-tag, sequence (P00740 other isoform, or with tags, fused parts or gaps A334L A334L limits assumed): as the sequence (P00740 other isoform, or with tags, fused parts or gaps T343A T343A limits assumed) above, with A334L, A343T counted along it
FIX L337A with C-terminal His-tag, sequence (P00740 other isoform, or with tags, fused parts or gaps L337A L337A limits assumed): as the sequence (P00740 other isoform, or with tags, fused parts or gaps T343A T343A limits assumed) above, with L337A, A343T counted along it
FIX K341A with C-terminal His-tag, sequence (P00740 other isoform, or with tags, fused parts or gaps K341A K341A limits assumed): as the sequence (P00740 other isoform, or with tags, fused parts or gaps T343A T343A limits assumed) above, with K341A, A343T counted along it
FIX T335A with C-terminal His-tag, sequence (P00740 other isoform, or with tags, fused parts or gaps T335A T335A limits assumed): as the sequence (P00740 other isoform, or with tags, fused parts or gaps T343A T343A limits assumed) above, with T335A, A343T counted along it
FIX R338A with C-terminal His-tag, sequence (P00740 other isoform, or with tags, fused parts or gaps R338A R338A limits assumed): as the sequence (P00740 other isoform, or with tags, fused parts or gaps T343A T343A limits assumed) above, with R338A, A343T counted along it
FIX R333A with C-terminal His-tag, sequence (P00740 other isoform, or with tags, fused parts or gaps R333A R333A limits assumed): as the sequence (P00740 other isoform, or with tags, fused parts or gaps T343A T343A limits assumed) above, with R333A, A343T counted along it

B1: one-armed (OA) mAb01-9994 (antibody, V domains shown)
VH: EVQLVESGGGLVQPGRSLRLSCAASGFTFHDYAMHWVRQVPGKGLEWVSGISWKGDIGGYVDSVKGRFTISRDNEKNSLYLQMNSLRAEDTALYYCVKSYGSGSFYNAFDSWGQGTLVTVSS
VL: DIQMTQSPSTLSASVGDRVTITCRASQSISSWLAWYQQKPGKAPKFLIYKASRLDRGTPSRFSGSGSGTEFSLTISSLQPDDFATYYCLEYSSYIRTFGQGTKVEIK
notes: also called OA variant of mAb01-9994
Stimulation Index, FXa generation assay, 3600 nM OA antibody [1]: 10600 fold
Binding (%) relative to wild-type FIX [2]: 100%
Binding (%) relative to wild-type FIX [3]: 41%
Binding (%) relative to wild-type FIX [4]: 41%
Binding (%) relative to wild-type FIX [5]: 89%
Binding (%) relative to wild-type FIX [6]: 38%
Binding (%) relative to wild-type FIX [7]: 3%
Binding (%) relative to wild-type FIX [8]: 55%
Binding (%) relative to wild-type FIX [9]: 43%
Binding (%) relative to wild-type FIX [10]: 62%
Binding (%) relative to wild-type FIX [11]: 46%
Binding (%) relative to wild-type FIX [12]: 18%
Binding (%) relative to wild-type FIX [13]: 101%
Binding (%) relative to wild-type FIX [14]: 92%
Binding (%) relative to wild-type FIX [15]: 16%
Binding (%) relative to wild-type FIX [16]: 0%
Binding (%) relative to wild-type FIX [17]: 38%
Binding (%) relative to wild-type FIX [18]: 58%

B2: one-armed (OA) mAb01-9985 (antibody, V domains shown)
VH: B1 VH with K54R, D62K, E75A
VL: B1 VL with R53K, D55E
notes: also called OA variant of mAb01-9985
Stimulation Index, FXa generation assay, 2400 nM OA antibody [1]: 13700 fold
Binding (%) relative to wild-type FIX [2]: 100%
Binding (%) relative to wild-type FIX [3]: 59%
Binding (%) relative to wild-type FIX [4]: 59%
Binding (%) relative to wild-type FIX [5]: 94%
Binding (%) relative to wild-type FIX [6]: 61%
Binding (%) relative to wild-type FIX [7]: 10%
Binding (%) relative to wild-type FIX [8]: 73%
Binding (%) relative to wild-type FIX [9]: 64%
Binding (%) relative to wild-type FIX [10]: 84%
Binding (%) relative to wild-type FIX [11]: 66%
Binding (%) relative to wild-type FIX [12]: 30%
Binding (%) relative to wild-type FIX [13]: 93%
Binding (%) relative to wild-type FIX [14]: 100%
Binding (%) relative to wild-type FIX [15]: 29%
Binding (%) relative to wild-type FIX [16]: 8%
Binding (%) relative to wild-type FIX [17]: 60%
Binding (%) relative to wild-type FIX [18]: 86%
